Experimental data as given in article PMC6267984.

Target: Orai1-CFP (UniProt Q96D31)
UniProt Q96D31, sequence (Q96D31 whole entry): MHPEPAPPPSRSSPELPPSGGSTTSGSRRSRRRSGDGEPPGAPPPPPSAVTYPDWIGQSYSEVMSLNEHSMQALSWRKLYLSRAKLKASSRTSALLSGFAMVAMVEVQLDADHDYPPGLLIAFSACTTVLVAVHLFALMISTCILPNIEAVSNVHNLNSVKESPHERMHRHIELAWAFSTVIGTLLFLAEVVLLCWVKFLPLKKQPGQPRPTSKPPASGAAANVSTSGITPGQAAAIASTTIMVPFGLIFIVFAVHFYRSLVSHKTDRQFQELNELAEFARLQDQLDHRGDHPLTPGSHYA

Row | constitutive Ca2+ entry at rest [nM] | Substance
1 | 6.6 | STIM1-G379E (from UniProt Q13586 23-685) (natural protein)
2 | 3.5 | STIM1-G379E-ΔK (domain or fragment)
